Reference: patent US20100260765A1 (AstraZeneca / MedImmune, published 2010)

B1: anti-KDR monoclonal antibody 29D4 (antibody, V domains shown)
VH: QLQLQESGPGLVKPSETLSLTCTVSGGSISSRSNYWGWIRQPPGKGLEWIGTIYYSGHTYYNPSLKSRVSISVDTSKNQFSLKLSSVTATDTALYYCARQQLVLYYFEYWGQGTLVTVSS
VL: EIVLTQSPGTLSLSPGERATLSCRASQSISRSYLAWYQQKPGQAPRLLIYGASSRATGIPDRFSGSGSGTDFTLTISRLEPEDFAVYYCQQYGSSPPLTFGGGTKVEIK
notes: Fully human mAb from XenoMouse (IgG2 or IgG4 strain); hybridoma supernatant
B2: anti-KDR monoclonal antibody 32F4 (antibody, V domains shown)
VH: QLQLQESGPGLVKPSGTLSLSCTVSGGSISSRSDYWGWIRQPPGKGLEWIGTIYYSGNTFYNPSLKSRVTISVDTSKKQFSLKLSSVTAADTAVYYCARQQLVLYYFDYWGQGTLVTVSS
VL: EIVLTQSPGTLSLSPGERATLSCRTSQSVSSSYLAWYQQKPGQAPRLLIYGASSRATGVPDRFSGSGSGTDFSLTISRLEPEDFAVYYCQQYGSSPPLTFGGGTKVEIK
notes: as for B1
B3: anti-KDR monoclonal antibody 31E11 (antibody, V domains shown)
VH: QVQLVESGGGLVKPGGSLRLSCAASGFTFSDYYMSWIRQAPGKGLEWVSYISISGSTIYYADSVKGRFTISRDNAKNSLYLQMNSLRAEDTAVYYCARDDFWSGYYFNWFDPWGQGTLVTVSS
VL: DIQMTQSPSSLSASVGDRVTITCRANQTISTFLNWYQQNPGKAPKLLIYAASSLQSGVPSRFSGSGSGTDFTLTISSLQPEDFATYYCQQTYIIPLTFGGGTKVEIK
notes: as for B1

Columns and labels:
b-KDRIg4-7-myc-his = target: T1, b-KDRIg4-7-myc-his (UniProt P35968 328-764, prefix 'b-' not explained; captured on neutravidin-coated plates (presumably biotinylated, site not stated)); assay: ELISA, b-KDRIg4-7-myc-his 1 ug/mL on neutravidin, hybridoma supernatant 1:5
T1 construct: domain: Ig4-7; The text calls it 'a KDR antibody containing the Ig4-7 domain'; it is read as the KDR fragment; Purified on a nickel column; also called Ig4-7 domain of KDR; soluble KDR Ig4-7; not shown: myc-his tag of the pSecTag vector
Procedure: To screen by binding to the Ig4-7 domain of KDR, plates were first coated with neutravadin (Pierce) at 4 μg/mL and incubated overnight at 4° C. The plates were then blocked and subsequently incubated with b-KDRIg4-7-myc-his at 1 μg/mL for one hour at room temperature. Candidate hybridoma supernatants (at 1:5 dilution) were transferred to the plates and incubated for one hour at room temperature. The plates were then washed and incubated with goat anti-human IgG Fc POD (at 1:4000 dilution) for one hour at room temperature.

[1] = target: T2, human KDR (VEGFR2) on cells (human, UniProt P35968 20-1356); assay: cell-based or functional assay
[2] = target: T2, human KDR (VEGFR2) on cells; assay: FACS on HUVEC, hybridoma supernatant 1:50
In short: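 HUVECs incubated 1 h at 4° C with hybridoma supernatant at 1:50, then Cy5 goat anti-human antibody (5 μg/mL) plus 7AAD (5 μg/mL) for 15 min at 4° C. Cell-surface binding read by FACS; goat anti-KDR antibody as positive control, irrelevant hybridoma supernatants as negative controls.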

[3] = target: T3, mouse KDR (Flk-1)/Fc (Cat. #443-KD/CF, R&D Systems) (mouse, UniProt P35918 20-762); assay: ELISA, plate-coated Flk-1/Fc 500 ng/mL, hybridoma supernatant 1:5
T3 construct: Bought reagent; also called mouse VEGFR2; KDR mouse ortholog; Fc part of the bought chimera not given

[4] = target: T2, human KDR (VEGFR2) on cells; assay: cell-based or functional assay; remark: listed apart in the source
[5] = target: T2, human KDR (VEGFR2) on cells; assay: cell-based or functional assay; remark: listed apart in the source
[6] = target: T4, soluble KDR (VEGF Receptor 2 D1-7, Cat. #676490, Calbiochem) (human, UniProt P35968 20-764); assay: ELISA, plate-coated soluble KDR 250 ng/mL, hybridoma supernatant 1:5
T4 construct: extracellular domain; Bought reagent; also called soluble human KDR; immobilized soluble KDR
Procedure: To screen by binding to immobilized soluble KDR, plates were coated with KDR (Calbiochem) at 250 ng/mL overnight at 4° C. After blocking and washing the coated plates, the candidate hybridoma supernatants (at 1:5 dilution) were transferred to the plates and incubated for one hour at room temperature. The plates were then washed and incubated with secondary antibody (at 1:4000 dilution) for one hour at room temperature.

T3 sequence (P35918 20-762): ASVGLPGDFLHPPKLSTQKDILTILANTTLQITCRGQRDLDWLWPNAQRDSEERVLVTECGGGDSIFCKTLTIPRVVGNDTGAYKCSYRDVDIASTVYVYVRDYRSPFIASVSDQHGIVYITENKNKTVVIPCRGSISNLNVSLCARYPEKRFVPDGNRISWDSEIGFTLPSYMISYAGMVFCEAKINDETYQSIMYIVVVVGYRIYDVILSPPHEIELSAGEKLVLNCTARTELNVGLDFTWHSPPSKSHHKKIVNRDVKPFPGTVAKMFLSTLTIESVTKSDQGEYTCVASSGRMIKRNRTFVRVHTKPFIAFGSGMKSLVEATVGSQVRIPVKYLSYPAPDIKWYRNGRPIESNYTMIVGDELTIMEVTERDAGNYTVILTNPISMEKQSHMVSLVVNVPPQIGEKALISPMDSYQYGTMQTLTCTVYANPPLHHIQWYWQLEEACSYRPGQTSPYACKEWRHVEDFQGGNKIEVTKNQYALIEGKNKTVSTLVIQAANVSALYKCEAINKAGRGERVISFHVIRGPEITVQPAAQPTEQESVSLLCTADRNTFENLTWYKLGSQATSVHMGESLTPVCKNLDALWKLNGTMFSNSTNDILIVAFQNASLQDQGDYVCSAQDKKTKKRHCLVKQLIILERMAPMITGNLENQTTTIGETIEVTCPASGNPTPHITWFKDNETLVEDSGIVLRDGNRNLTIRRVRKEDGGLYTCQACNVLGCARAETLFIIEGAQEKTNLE
T2 sequence (P35968 20-1356): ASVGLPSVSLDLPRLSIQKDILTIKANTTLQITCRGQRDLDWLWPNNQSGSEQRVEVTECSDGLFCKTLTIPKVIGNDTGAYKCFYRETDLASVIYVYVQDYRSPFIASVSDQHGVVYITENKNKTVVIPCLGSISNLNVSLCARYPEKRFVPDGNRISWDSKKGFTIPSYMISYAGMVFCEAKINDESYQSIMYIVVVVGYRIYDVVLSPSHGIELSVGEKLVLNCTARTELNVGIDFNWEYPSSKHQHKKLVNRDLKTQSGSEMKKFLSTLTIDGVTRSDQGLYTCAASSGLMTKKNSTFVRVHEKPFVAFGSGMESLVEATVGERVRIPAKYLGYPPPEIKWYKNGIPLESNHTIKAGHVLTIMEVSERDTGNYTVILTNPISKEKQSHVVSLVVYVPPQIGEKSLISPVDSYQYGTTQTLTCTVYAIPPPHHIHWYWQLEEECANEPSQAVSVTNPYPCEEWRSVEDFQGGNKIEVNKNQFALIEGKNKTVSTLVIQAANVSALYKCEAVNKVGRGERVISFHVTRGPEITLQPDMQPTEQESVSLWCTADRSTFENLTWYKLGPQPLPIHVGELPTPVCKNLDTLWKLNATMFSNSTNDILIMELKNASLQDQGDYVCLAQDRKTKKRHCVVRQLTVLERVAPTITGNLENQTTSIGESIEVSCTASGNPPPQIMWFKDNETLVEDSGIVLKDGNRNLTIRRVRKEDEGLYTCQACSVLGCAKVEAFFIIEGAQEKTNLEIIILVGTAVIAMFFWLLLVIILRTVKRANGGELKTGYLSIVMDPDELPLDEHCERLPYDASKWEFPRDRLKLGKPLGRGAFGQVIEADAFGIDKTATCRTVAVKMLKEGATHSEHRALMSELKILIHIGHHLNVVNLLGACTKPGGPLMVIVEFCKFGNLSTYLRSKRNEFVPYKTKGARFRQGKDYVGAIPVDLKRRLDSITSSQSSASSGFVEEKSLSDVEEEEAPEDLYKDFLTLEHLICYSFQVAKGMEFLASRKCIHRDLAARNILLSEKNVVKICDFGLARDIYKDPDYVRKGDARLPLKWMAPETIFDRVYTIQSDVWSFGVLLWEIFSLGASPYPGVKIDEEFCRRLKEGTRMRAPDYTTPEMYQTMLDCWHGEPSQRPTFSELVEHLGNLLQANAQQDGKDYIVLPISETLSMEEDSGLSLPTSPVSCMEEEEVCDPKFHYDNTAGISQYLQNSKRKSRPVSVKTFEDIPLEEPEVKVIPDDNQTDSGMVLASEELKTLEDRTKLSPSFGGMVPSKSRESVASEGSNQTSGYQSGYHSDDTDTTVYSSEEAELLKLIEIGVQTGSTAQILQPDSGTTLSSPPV
T1 sequence (P35968 328-764): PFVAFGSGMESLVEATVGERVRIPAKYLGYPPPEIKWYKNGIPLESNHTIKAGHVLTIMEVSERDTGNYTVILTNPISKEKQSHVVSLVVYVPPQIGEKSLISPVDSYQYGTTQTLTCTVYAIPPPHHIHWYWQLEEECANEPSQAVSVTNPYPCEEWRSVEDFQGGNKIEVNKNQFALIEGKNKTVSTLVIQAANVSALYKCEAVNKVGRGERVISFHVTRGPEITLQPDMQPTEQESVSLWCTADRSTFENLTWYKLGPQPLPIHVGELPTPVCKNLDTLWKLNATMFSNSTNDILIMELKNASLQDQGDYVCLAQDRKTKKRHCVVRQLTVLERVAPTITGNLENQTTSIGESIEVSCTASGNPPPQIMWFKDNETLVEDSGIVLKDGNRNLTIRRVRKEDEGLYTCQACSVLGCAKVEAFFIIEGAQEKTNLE
T4 sequence (P35968 20-764): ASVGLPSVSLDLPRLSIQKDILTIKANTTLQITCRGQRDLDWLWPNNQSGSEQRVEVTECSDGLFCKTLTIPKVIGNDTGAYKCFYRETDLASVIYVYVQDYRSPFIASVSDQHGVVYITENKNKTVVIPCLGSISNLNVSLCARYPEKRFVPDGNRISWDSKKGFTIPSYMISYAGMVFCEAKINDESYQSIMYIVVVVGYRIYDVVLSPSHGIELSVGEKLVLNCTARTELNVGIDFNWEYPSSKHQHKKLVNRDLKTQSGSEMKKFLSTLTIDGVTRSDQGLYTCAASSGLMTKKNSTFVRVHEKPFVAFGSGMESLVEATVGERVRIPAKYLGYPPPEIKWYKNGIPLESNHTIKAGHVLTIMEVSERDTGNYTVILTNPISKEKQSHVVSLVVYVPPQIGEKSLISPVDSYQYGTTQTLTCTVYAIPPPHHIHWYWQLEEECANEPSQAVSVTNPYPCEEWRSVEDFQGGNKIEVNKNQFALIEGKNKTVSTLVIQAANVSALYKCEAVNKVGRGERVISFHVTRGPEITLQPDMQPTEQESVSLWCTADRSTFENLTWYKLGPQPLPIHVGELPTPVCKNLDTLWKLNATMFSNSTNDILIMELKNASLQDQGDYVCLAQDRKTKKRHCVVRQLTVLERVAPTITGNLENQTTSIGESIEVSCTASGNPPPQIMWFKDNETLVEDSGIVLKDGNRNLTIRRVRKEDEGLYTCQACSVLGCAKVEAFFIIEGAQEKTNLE

Binder | b-KDRIg4-7 OD(450 nm) (b-KDRIg4-7-myc-his) | % Inhibition of VEGF-E-mediated pTyr Activity [1] | FACS Geometric Mean [2] | OD (450 nm) [3] | HUVEC survival (n = 1) 1:10 dilution of supernatant (RLU) [4] | HUVEC survival (n = 2) 1:20 dilution of supernatant (RLU) [4] | % Inhibition of VEGF165-mediated pTyr Activity, Average [5] | % Inhibition of VEGF165-mediated pTyr Activity, n = 1 [5] | % Inhibition of VEGF165-mediated pTyr Activity, n = 2 [5] | % Inhibition of VEGF165-mediated pTyr Activity, n = 3 [5] | KDR OD(450 nm) [6]
B1 | 2.61 OD450 | 67% | 26 | 0.1 OD450 | 12900 RLU | 5380 RLU | 72% | 85% | 67% | 63% | 1 OD450
B2 | 2.29 OD450 | 62% | 27 | 0.094 OD450 | 20100 RLU | 5030 RLU | 73% | 88% | 76% | 56% | 0.907 OD450
B3 | 1.28 OD450 | 67% | 18 | 0.162 OD450 | 9140 RLU | 6980 RLU | 74% | 81% | 80% | 59% | 1.14 OD450
